From patent US20260209365A1, “ANTI-COMMON GAMMA CHAIN PROTEINS AND COMPOSITIONS OF MATTER” (SINOMAB BIOSCIENCE LIMITED, priority 2023, published 2026)

Experiments:
Type in all cases: cell-based, human
[1] = tested on: cleaved caspase 3 and μ-H2AX; assay: Western blot of cleaved caspase 3 and μ-H2AX in Ramos; conditions: IL-4 10 ng/ml; 33 nM
Description: Levels of cleaved caspase 3 (apoptotic protein) and μ-H2AX (DNA damage marker) were investigated by western blot in the Ramos B cells treated in the same paradigm. In brief, total proteins were extracted from the Ramos cells in RIPA lysis buffer supplemented with Halt™ Protease and Phosphatase Inhibitor Cocktail. Proteins were denatured and separated through electrophoresis and blotted on the nitrocellulose membrane. The membrane was blocked with 5% nonfat milk diluted in TBST, then incubated with primary antibodies diluted in 5% BSA/TBS T at 4° C. overnight in a rotating wheel. Next day, membrane was washed with PBST and incubated with secondary antibodies diluted in 5% milk/TBST for an hour at RT. Intensities of protein bands were determined using ECL substrate kit in the ChemiDoc Imaging System.

CD23 expression = assay: qRT-PCR of CD23 expression in Ramos; conditions: IL-4 10 ng/ml, 24 hours, 33 nM
Description: Genes related to the B cell functions were investigated by quantitative real-time PCR (qRT-PCR). In brief, Ramos cells were starved in serum-free RPMI1640 medium for 24 hours and then treated with 10 ng/ml IL-4 or IL-21 for 24 hours. Total RNA was extracted by RNAzol following manufacturer's protocol. Reverse transcription was performed in 500 ng of total RNA using PrimeScript RT reagent kit and the gene expression was analyzed by quantitative real-time PCR using TB Green Premix Ex Taq in Lightcycler® 480 Real-Time PCR System. Housekeeping gene GAPDH was used for normalization.

granzyme A secretion = assay: Granzyme A secretion from KHYG-1, ELISA; conditions: 3 days, 33 nM
Description: To test the efficacies of anti-γc antibodies, proliferation and granzyme A secretion were chosen as the experimental models. In brief, KHYG-1 was seeded into either 48- or 96-well plates and starved in non-IL-2 supplemented medium overnight. After replenishment with new medium, KHYG-1 was pre-incubated with anti-γc antibodies or ritlecitinib for an hour before the administration of γc cytokines for 3 days. Proliferation rate was determined by the addition of WST-8 reagent while the secretion of granzyme A was estimated by ELISA measurement.

[2] = tested on: granzyme and IFNγ secretion; assay: Secretion of granzymes and IFNγ from PBMC culture, ELISA
Description: Activation of T and NK cells in the PBMC culture could be studied by granzyme and IFNγ secretion [Carlin et al., Blood., 2005; 106 (12): 3874-9; Grossman et al., Blood., 2004; 104 (9): 2840-8; Keppel et al., J Immunol., 2015; 194 (4): 1954-1962; Tamang et al., Cytokine., 2006; 36 (3-4): 148-59]. Similar results are obtained in-house that IL-2 and IL-15 but not IL-21 could trigger secretion of granzyme A and IFNγ in PBMC culture (FIG. 15A-B).
Antibodies or ritlecitinib were added into the PBMC culture to investigate their inhibitory effects in the presence of IL-2 or IL-15 treatment.
Releases of cytolytic agents from PBMC culture were further evaluated by ELISA assays.

[3] = tested on: IL-15 induced STAT5 phosphorylation; assay: Inhibition of IL-15 induced STAT phosphorylation in KHYG-1 NK cell line, flow cytometry; conditions: ScFv 10 μg/ml
Description: (§1) Cells were harvested and stained with FITC conjugated anti-pSTAT6, PE conjugated anti-pSTAT3 or APC con jugated anti-pSTAT5 antibodies for flow cytometry analyses. In some embodiments, the purified ScFv could block the IL-4 induced STAT6 phosphorylation in cell culture (e.g., Ramos). In some embodiments, the purified ScFv could block the IL-7 induced STAT5 phosphorylation in cell culture (e.g., HPB-ALL). In some embodiments, the purified ScFv could block the IL-9 induced STAT3 phosphorylation in cell culture (e.g., Jurkat). In some embodiments, the purified ScFv could block the IL-15 induced STAT5 phosphorylation in cell culture (e.g., KHYG-1). In some embodiments, the purified ScFv could block the IL-21 induced STAT3 phosphorylation in cell culture (e.g., Ramos).
(§2) Flow cytometry was employed to measure the percentage of p-STAT expressing cells after cytokine induction and anti-γc ScFv treatment. KHYG-1 (Creative Bioarray, Shirley, NY 11967, USA) was starved in IL-2 free RPMI1640 (ATCC modification, ThermoFisher Scientific, Waltham, MA, USA) with 10% FBS (ThermoFisher Scientific) for 2 days. Ramos, HPB-ALL and Jurkat cell lines were used directly without starvation. Cells were replenished with fresh RPMI1640 medium and pretreated with anti-γc ScFv (10 μg/mL) for an hour. After treatment with TL-4 (10 ng/ml, Sino Biological), IL-7 (50 ng/ml, Sino Biological), IL-9 (50 ng/ml, Sino Biological), IL-15 (10 ng/ml, Sino Biological) or IL-21 (10 ng/ml, Sino Biological) for 15 min, cells were fixed in 4% paraformaldehyde (PFA, Sigma, St. Louis, Missouri, USA) for 10 min, permeabilized in 0.1% Triton X-100 (Sigma) for 10 min and then stained with FITC conjugated anti-pSTAT6, PE conjugated anti-pSTAT3 or APC con jugated anti-pSTAT5 (all diluted in 1:100, Biolegend, San Diego, California, USA) for 30 min at 37° C. Percentage of p-STAT expressing cells was measured by BD FACSLyric™ Clinical Flow Cytometry System (BD Biosciences, New Jersey, USA). Data were analyzed by Flowjo (version 10, BD).
(§3) Different cell lines were used for testing. KHYG-1 refers to the NK cell line harvested from the peripheral blood of a person with aggressive NK cell leukemia. This cell line could respond to IL-2 and IL-15 stimulation in-vitro [Yamasaki et al., Leuk Res., […]; 28 (10): 1023-31]. Ramos is a human Burkitts Lymphoma cell line (CRL-1596™) and could be used as a model for IL-4 and IL-21 studies [Hui et al., Front Immunol., 2022; 13: 919854]. Jurkat is a human T lymphoblast cell line (Clone E6-1, TIB-152™) and is widely used in the T cell studies of IL-9 function. HPB-ALL is a T cell leukemia model established from the peripheral blood of a child with ALL and thymoma at diagnosis in 1973 and could be used for IL-7 functional studies.

[4] = tested on: IL-9 induced STAT3 phosphorylation; assay: Inhibition of IL-9 induced STAT3 phosphorylation in Jurkat T cell line, flow cytometry; conditions: ScFv 10 μg/ml
Description: as §1, §2, §3

Ramos B cells = assay: WST-8 proliferation assay, IL-4/IL-21 rescue of anti-IgM induced cell death; conditions: chimeric antibodies; 33 nM; IL-4/IL-21 10 ng/ml; 48 hours
Description: The effects of anti-γc antibodies in blocking IL-4 and IL-21 rescues of Ramos cell death after anti-IgM induced hyperactivation were investigated by WST-8 proliferation assay. In brief, Ramos cells (50000 cells in 100 l) were seeded into 96-well plate and stabilized at 37° C. for an hour. Cells were pretreated in anti-γc antibodies or ritlecitinib for an hour, followed by incubation of IL-4 (10 ng/ml) or IL-21 (10 ng/ml) and anti-IgM (2 ug/ml, #109-006-129, Jackson ImmunoResearch). Aft er 48 hours, 10 μl WST-8 reagent (ab228554, Abcam) was added to each well and incubated for 4 hours.
WST-8 could be reduced by cellular dehydrogenases to an orange formazan product, which the amount of formazan produced is directly proportional to the number of living Ramos cells. Optical density (OD) of each well was measured by absorbance at 450 nm using Varioskan LUX Multimode Microplate Reader (ThermoFisher Scientific).

[5] = tested on: IL-7 induced STAT5 phosphorylation; assay: Inhibition of IL-7 induced STAT5 phosphorylation in HPB-ALL T cell line, flow cytometry; conditions: ScFv 10 μg/ml
Description: as §1, §2, §3

[6] = tested on: IL-4 induced STAT6 phosphorylation; assay: Inhibition of IL-4 induced STAT phosphorylation in Ramos B cell line, flow cytometry; conditions: ScFv 10 μg/ml
Description: as §1, §2, §3

[7] = tested on: STAT phosphorylation induced by 6 γc cytokines; assay: Flow cytometry of p-STAT with full-length anti-γc antibodies in multiple cell lines; conditions: IL-2, IL-15 in KHYG-1; IL-4, IL-21 in Ramos; IL-7 in HPB-ALL; IL-9 in Jurkat; cytokines 10 ng/ml; 33 nM (5 μg/ml)
Description: Flow cytometry was employed to measure the percentage of p-STAT expressing cells after cytokine induction and anti-γc antibody treatment as previously described. IL-2 and IL-15 were tested in KHYG-1 NK cell line; IL-4 and IL-21 were tested in Ramos B cell line; IL-7 was tested in HPB-ALL T cell line; and IL-9 was tested in Jurkat T cell line.

[8] = tested on: IL-21 induced STAT3 phosphorylation; assay: Inhibition of IL-21 induced STAT phosphorylation in Ramos B cell line, flow cytometry; conditions: ScFv 10 μg/ml
Description: as §1, §2, §3

## C=CC(=O)N1C[C@H](Nc2ncnc3[nH]ccc23)CC[C@@H]1C [ritlecitinib]
[1]
  block of IL-4 protective effects, μ-H2AX re-induced: could block IL-4 protective effects
CD23 expression
  suppression of IL-4 induced CD23 expression: significantly suppress IL-4 induced CD23 expression
Granzyme A secretion
  suppression of IL-2, IL-15 and IL-21 induced granzyme A secretion: significantly suppress IL-2, IL-15 and IL-21 induced granzyme A secretion
[2]; IL-2, IL-15 20 ng/ml, three days, 33 nM
  suppression of IL-2 and IL-15 induced secretion of granzyme A and IFNγ: significantly reduced
[2]; IL-2 or IL-15, 33 nM, humanized antibodies
  suppression of granzyme B secretion: superior suppression to granzyme B secretion

B1: SM-05F: anti-γc antibody, full-length chimeric; CDR SEQ ID NO: 84, 86, 88, 92, 94, 96 (antibody, V domains shown)
VH: EVQLQQSGPELVKPGASVKIFCKTSGYTFTEYTMHWVKQSHGESLEWIGGIDPNTGGVTYNQKFKGKATLTADKSSSTAYMELRSLTSEDSAVYYCARRRRYYGYALDYWGQGTSVTVSS
VL: DVLMTQTPLSLPVSLGDQASISCRSSQSIVHNNGNTYLEWYLQKPGQSPKLLIYKVSNRFFGVPDRFSGSGSGTYFTLKISRVEAEDLGVYYCFQGSHVPWTFGGGTKLEIKR
[3]
  p-STAT5 inhibition (%): 43.73%
[4]
  p-STAT3 inhibition (%): 92.36%
Ramos B cells
  block of IL-4 and IL-21 rescue of anti-IgM induced cell death (WST-8): could block the effects of IL-4 and IL-21
[5]
  p-STAT5 inhibition (%): 99.42%
[6]
  p-STAT6 inhibition (%): 45.99%
[7]
  block of STAT phosphorylation: barely demonstrated strong inhibitory effects
[8]
  p-STAT3 inhibition (%): 78.97%
